According to patent US20190338048A1:
Read-outs that look alike come from different tables or passages of the source. Blank lines part the entries; values can stand above or below the substance they belong to.

How the values were obtained:
[1] = target: Pertuzumab wild-type kappa light chain with N-terminal FLAG tag; test: SMCA: H1, H2, L1, L2 co-expressed in CHO-3E7
[2] = target: SGN-CD19a kappa light chain Q124K_V133A_T178R (L2 of design 3109, systems B and C); test: SMCA LC-MS
[3] = target: SGN-CD19a kappa light chain Q124K_V133A_T178R (L2 of design 3109, systems B and C); test: SMCA LC-MS; remark: listed apart in the source
[4] = target: SGN-CD19a kappa light chain Q124K_V133A_T178R (L2 of design 3109, systems B and C); test: SMCA LC-MS; remark: listed apart in the source
[5] = target: Pertuzumab kappa light chain S176D_T178E (L2), N-terminal HA tag; test: LCCA, SPR of light chain tags
[6] = target: Pertuzumab kappa light chain S131E_V133G_T178F (L2), N-terminal HA tag; test: LCCA, SPR of light chain tags
[7] = target: Pertuzumab kappa light chain S131D_V133G_T178F (L2), N-terminal HA tag; test: LCCA, SPR of light chain tags
[8] = target: Pertuzumab kappa light chain S176E_T178E (L2), N-terminal HA tag; test: LCCA, SPR of light chain tags
[9] = target: CAT-2200 lambda light chain S176K_Y178K (L1), N-terminal FLAG tag; test: LCCA, SPR of light chain tags
[10] = target: CAT-2200 lambda light chain S176K_Y178R (L1), N-terminal FLAG tag; test: LCCA, SPR of light chain tags
[11] = target: CAT-2200 lambda light chain S176K_Y178L (L1), N-terminal FLAG tag; test: LCCA, SPR of light chain tags
[12] = target: CAT-2200 lambda light chain S176K_Y178K (L1), N-terminal FLAG tag; test: LCCA, SPR of light chain tags; remark: listed apart in the source
[13] = target: Pertuzumab kappa light chain S176D_T178E (L2), N-terminal HA tag; test: LCCA, SPR of light chain tags; remark: listed apart in the source
[14] = target: CAT-2200 lambda light chain S176K_Y178R (L1), N-terminal FLAG tag; test: LCCA, SPR of light chain tags; remark: listed apart in the source
[15] = target: Pertuzumab kappa light chain S176E_T178E (L2), N-terminal HA tag; test: LCCA, SPR of light chain tags; remark: listed apart in the source
[16] = target: CAT-2200 lambda light chain S176K_Y178L (L1), N-terminal FLAG tag; test: LCCA, SPR of light chain tags; remark: listed apart in the source
[17] = target: CAT-2200 lambda light chain Y178K (L1), N-terminal FLAG tag; test: LCCA, SPR of light chain tags
[18] = target: CAT-2200 lambda light chain S176K_Y178R (L1), N-terminal FLAG tag; test: LCCA, SPR of light chain tags; remark: listed apart in the source
[19] = target: CAT-2200 lambda light chain S176K_Y178L (L1), N-terminal FLAG tag; test: LCCA, SPR of light chain tags; remark: listed apart in the source
[20] = target: Pertuzumab kappa light chain S176D_T178E (L2), N-terminal HA tag; test: LCCA, SPR of light chain tags; remark: listed apart in the source
[21] = target: Pertuzumab kappa light chain S131E_V133G_T178F (L2), N-terminal HA tag; test: LCCA, SPR of light chain tags; remark: listed apart in the source
[22] = target: Pertuzumab kappa light chain S131D_V133G_T178F (L2), N-terminal HA tag; test: LCCA, SPR of light chain tags; remark: listed apart in the source
[23] = target: Pertuzumab kappa light chain S176E_T178E (L2), N-terminal HA tag; test: LCCA, SPR of light chain tags; remark: listed apart in the source
[24] = target: Pertuzumab kappa light chain S176D_T178E (L2), N-terminal HA tag; test: LCCA, SPR of light chain tags; remark: listed apart in the source
[25] = target: Pertuzumab kappa light chain S131E_V133G_T178F (L2), N-terminal HA tag; test: LCCA, SPR of light chain tags; remark: listed apart in the source
[26] = target: Pertuzumab kappa light chain S131D_V133G_T178F (L2), N-terminal HA tag; test: LCCA, SPR of light chain tags; remark: listed apart in the source
[27] = target: Pertuzumab kappa light chain S176E_T178E (L2), N-terminal HA tag; test: LCCA, SPR of light chain tags; remark: listed apart in the source
[28] = target: Design 3954 L2: SGN-CD19a kappa light chain S121K_S176E_T178E; test: SMCA: H1, L1, H2, L2 co-expressed, protein A, LC-MS
[29] = target: Design 3954 L2: SGN-CD19a kappa light chain S121K_S176E_T178E; test: as above; remark: listed apart in the source
[30] = target: Design 3954 L2: SGN-CD19a kappa light chain S121K_S176E_T178E; test: as above; remark: listed apart in the source
[31] = target: Design 3997 L1: CR8071 lambda light chain S122D_E124Q_T131R; test: SMCA: H1, L1, H2, L2 co-expressed in CHO-3E7, protein A, LC-MS
[32] = target: Design 3997 L1: CR8071 lambda light chain S122D_E124Q_T131R; test: SMCA, LC-MS
[33] = target: Design 3947 L2: SGN-CD19a kappa light chain S131K_S176K; test: SMCA: H1, L1, H2, L2 co-expressed, protein A, LC-MS
[34] = target: Design 3947 L2: SGN-CD19a kappa light chain S131K_S176K; test: as above; remark: listed apart in the source
[35] = target: Design 3947 L2: SGN-CD19a kappa light chain S131K_S176K; test: as above; remark: listed apart in the source
[36] = target: Pertuzumab kappa light chain V133D (L2), N-terminal HA tag; test: LCCA, SPR of light chain tags
[37] = target: Pertuzumab kappa light chain Q124E_V133D (L2), N-terminal HA tag; test: LCCA, SPR of light chain tags
[38] = target: Pertuzumab kappa light chain Q124E_V133D (L2), N-terminal HA tag; test: LCCA, SPR of light chain tags; remark: listed apart in the source
[39] = target: Pertuzumab kappa light chain V133D (L2), N-terminal HA tag; test: LCCA, SPR of light chain tags; remark: listed apart in the source
[40] = target: Pertuzumab kappa light chain Q124E_V133D (L2), N-terminal HA tag; test: LCCA, SPR of light chain tags; remark: listed apart in the source
[41] = target: CAT-2200 lambda light chain S176K_Y178R (L1), N-terminal FLAG tag; test: LCCA, SPR of light chain tags; remark: listed apart in the source
[42] = target: Pertuzumab kappa light chain V133G_S176D_T178D (L2), N-terminal HA tag; test: LCCA, SPR of light chain tags
[43] = target: Pertuzumab kappa light chain V133G_S176D (L2), N-terminal HA tag; test: LCCA, SPR of light chain tags
[44] = target: Pertuzumab kappa light chain V133G_S176D (L2), N-terminal HA tag; test: LCCA, SPR of light chain tags; remark: listed apart in the source
[45] = target: CAT-2200 lambda light chain S176K_Y178R (L1), N-terminal FLAG tag; test: LCCA, SPR of light chain tags; remark: listed apart in the source
[46] = target: Pertuzumab kappa light chain V133G_S176D (L2), N-terminal HA tag; test: LCCA, SPR of light chain tags; remark: listed apart in the source
[47] = target: Design 3951 L2: SGN-CD19a kappa light chain S121K_S131K_S176K; test: SMCA: H1, L1, H2, L2 co-expressed, protein A, LC-MS
[48] = target: Design 3951 L2: SGN-CD19a kappa light chain S121K_S131K_S176K; test: as above; remark: listed apart in the source
[49] = target: Design 3951 L2: SGN-CD19a kappa light chain S121K_S131K_S176K; test: as above; remark: listed apart in the source
[50] = target: CR8071 lambda light chain K129T_V133D (L1 of designs 3102 and 3109, system C); test: SMCA LC-MS
[51] = target: CR8071 lambda light chain K129T_V133D (L1 of designs 3102 and 3109, system C); test: SMCA LC-MS; remark: listed apart in the source
[52] = target: CR8071 lambda light chain K129T_V133D (L1 of designs 3102 and 3109, system C); test: SMCA LC-MS; remark: listed apart in the source

- % H2L2 Pairing (over all H2 species) [1]: 79.9%
Substance: Pertuzumab wild-type full-length IgG1 heavy chain (heterodimeric Fc) (from UniProt P0DOX5 2-448)

- Change in % H2L2 Pairing with respect to wild type [2]: 28.3%
- % H2L2 Pairing [3]: 99.6%
- % H2L2 Pairing [4]: 97.1%
- Change in % H2L2 Pairing with respect to wild type [4]: 42.9%
Substance: SGN-CD19a heavy chain L124W_L143E_K145T_Q179E (H2 of design 3109, systems B and C)

- % H1L1 Pairing [31]: 96%
- Change in % H1L1 Pairing with respect to wild type [32]: 27.9%
Substance: Design 3997 H1: CR8071 heavy chain A125R_L143E_K145T_Q179E

- H2L2:H2L1 normalized median ratio [42]: 61%
- H2L2:H2L1 normalized median scalar value ln(r1/f1) [42]: 0.43
- H2L2:H2L1 normalized median ratio [43]: 85%
- H2L2:H2L1 normalized median scalar value ln(r1/f1) [43]: 1.75
- H2L2:H2L1 normalized median ratio [12]: 16%
- H2L2:H2L1 normalized median ratio [14]: 15%
- H2L2:H2L1 normalized median ratio [16]: 26%
- H2L2:H2L1 normalized median ratio [44]: 74%
- H2L2:H2L1 normalized median scalar value ln(r1/f1) [44]: 1.06
- H2L2:H2L1 normalized median ratio [45]: 39%
- H2L2:H2L1 normalized median ratio [46]: 84%
- H2L2:H2L1 normalized median scalar value ln(r1/f1) [46]: 1.63
Substance: Pertuzumab Fab heavy chain L124R (H2), ABD2-His6 tagged

The next lines start with the substance.

Substance: Pertuzumab Fab heavy chain S188K (H2), ABD2-His6 tagged
- H2L2:H2L1 normalized median ratio [5]: 90%
- H2L2:H2L1 normalized median scalar value ln(r1/f1) [5]: 2.16
- H2L2:H2L1 normalized median scalar value ln(r1/f1) [6]: 2.35
- H2L2:H2L1 normalized median ratio [7]: 89%
- H2L2:H2L1 normalized median scalar value ln(r1/f1) [7]: 2.09
- H2L2:H2L1 normalized median ratio [8]: 95%
- H2L2:H2L1 normalized median scalar value ln(r1/f1) [8]: 2.87
- H2L2:H2L1 normalized median ratio [9]: 14%
- H2L2:H2L1 normalized median ratio [10]: 11%
- H2L2:H2L1 normalized median ratio [11]: 15%
- H2L2:H2L1 normalized median ratio [12]: 14%
- H2L2:H2L1 normalized median ratio [13]: 80%
- H2L2:H2L1 normalized median scalar value ln(r1/f1) [13]: 1.41
- H2L2:H2L1 normalized median ratio [14]: 9%
- H2L2:H2L1 normalized median scalar value ln(r1/f1) [15]: 2.67
- H2L2:H2L1 normalized median ratio [16]: 14%
- H2L2:H2L1 normalized median ratio [17]: 20%
- H2L2:H2L1 normalized median ratio [18]: 5%
- H2L2:H2L1 normalized median ratio [19]: 5%
- H2L2:H2L1 normalized median ratio [20]: 86%
- H2L2:H2L1 normalized median scalar value ln(r1/f1) [20]: 1.78
- H2L2:H2L1 normalized median scalar value ln(r1/f1) [21]: 2.17
- H2L2:H2L1 normalized median ratio [22]: 85%
- H2L2:H2L1 normalized median scalar value ln(r1/f1) [22]: 1.77
- H2L2:H2L1 normalized median ratio [23]: 95%
- H2L2:H2L1 normalized median scalar value ln(r1/f1) [23]: 2.96
- H2L2:H2L1 normalized median ratio [24]: 86%
- H2L2:H2L1 normalized median scalar value ln(r1/f1) [24]: 1.83
- H2L2:H2L1 normalized median scalar value ln(r1/f1) [25]: 2.77
- H2L2:H2L1 normalized median ratio [26]: 86%
- H2L2:H2L1 normalized median scalar value ln(r1/f1) [26]: 1.85
- H2L2:H2L1 normalized median scalar value ln(r1/f1) [27]: 2.75

Substance: Design 3954 H2: SGN-CD19a heavy chain S188K_K228D
- Change in % H2L2 Pairing with respect to wild type [28]: 7.6%
- % H2L2 Pairing [29]: 61.8%
- % H2L2 Pairing [30]: 98.7%
- Change in % H2L2 Pairing with respect to wild type [30]: 19.1%

Substance: Design 3947 H2: SGN-CD19a heavy chain K145T_S186E
- Change in % H2L2 Pairing with respect to wild type [33]: 16.1%
- % H2L2 Pairing [34]: 70.3%
- % H2L2 Pairing [35]: 94.5%
- Change in % H2L2 Pairing with respect to wild type [35]: 23.2%

Substance: Pertuzumab Fab heavy chain L143K (H2), ABD2-His6 tagged
- H2L2:H2L1 normalized median ratio [36]: 80%
- H2L2:H2L1 normalized median scalar value ln(r1/f1) [36]: 1.39
- H2L2:H2L1 normalized median ratio [37]: 88%
- H2L2:H2L1 normalized median scalar value ln(r1/f1) [37]: 1.95
- H2L2:H2L1 normalized median ratio [12]: 14%
- H2L2:H2L1 normalized median ratio [14]: 12%
- H2L2:H2L1 normalized median ratio [38]: 93%
- H2L2:H2L1 normalized median scalar value ln(r1/f1) [38]: 2.64
- H2L2:H2L1 normalized median ratio [39]: 77%
- H2L2:H2L1 normalized median scalar value ln(r1/f1) [39]: 1.2
- H2L2:H2L1 normalized median ratio [40]: 86%
- H2L2:H2L1 normalized median scalar value ln(r1/f1) [40]: 1.78
- H2L2:H2L1 normalized median ratio [41]: 20%

Substance: Design 3951 H2: SGN-CD19a heavy chain K145T_S186E_K228D
- Change in % H2L2 Pairing with respect to wild type [47]: 23.3%
- % H2L2 Pairing [48]: 77.5%
- % H2L2 Pairing [49]: 97.1%
- Change in % H2L2 Pairing with respect to wild type [49]: 25.8%

Substance: CR8071 heavy chain L143K (H1 of designs 3102 and 3109, system C)
- Change in % H1L1 Pairing with respect to wild type [50]: 15.9%
- % H1L1 Pairing [51]: 84%
- % H1L1 Pairing [52]: 88.7%
- Change in % H1L1 Pairing with respect to wild type [52]: 6.4%
